Measurements: patent publication US20050266242A1

Target: biotinylated NM^K184C seed (Saccharomyces cerevisiae) (UniProt P05453)
Assay: capture of biotinylated seed (50% w/w) on Streptavidin-coated Dynabeads, SDS wash, scintillation counting

Sequence of biotinylated NM^K184C seed (Saccharomyces cerevisiae) (P05453 1-253 K184C): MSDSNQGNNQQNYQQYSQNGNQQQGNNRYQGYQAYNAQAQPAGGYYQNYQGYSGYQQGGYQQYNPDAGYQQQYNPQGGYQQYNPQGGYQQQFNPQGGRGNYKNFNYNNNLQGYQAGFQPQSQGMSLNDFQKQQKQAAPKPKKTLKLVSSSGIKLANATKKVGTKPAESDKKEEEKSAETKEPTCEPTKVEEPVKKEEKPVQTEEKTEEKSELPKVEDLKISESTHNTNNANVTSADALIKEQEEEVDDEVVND

Substance: NM^T158C-iodo[1-14C]acetamide (from UniProt P05453 1-253)
- fraction of seed-bound NM soluble in SDS at early time points: 50%
